How the values were obtained:
K. acrogenes = assay: MIC, broth microdilution; assay type: cell-based, Klebsiella aerogenes
Procedure: (§1) The MIC of the LNT113 or antibiotic was determined using modification of the broth microdilution method in a 96-well, round bottom, microplate according to the previously described method (Heselpoth et al., 2019). Exponentially grown cells were diluted to a concentration of 10^6 CFU/ml in a CAA medium, and then cultured with recombinant LNT113 (1-64 μg/ml) or antibiotics at 35° C. for 20 hours. […] The MBC was defined as the lowest concentration of the antibacterial agent with no growth on a plate. All analyses were performed in duplicate.

Salmonella enteritidis = assay: MIC, broth microdilution; assay type: cell-based
Procedure: as §1

Salmonella typhimurium = assay: MIC, broth microdilution; assay type: cell-based
Procedure: as §1

[1] = tested on: various gram-negative bacterium; assay: MIC, summary over Table 4 strains; assay type: cell-based; conditions: strains of Table 4
Procedure: as §1

K. pneumoniae = assay: MIC, broth microdilution; assay type: cell-based, Klebsiella pneumoniae
Procedure: as §1

E. cloacae = assay: MIC, broth microdilution; assay type: cell-based, Enterobacter cloacae
Procedure: as §1

E. coli [2] = assay: Checkerboard assay (MIC in combination, FIC index); assay type: cell-based, Escherichia coli
Procedure: LNT113 was vertically diluted 2-fold and the antibiotic was serially diluted horizontally in a 96-well plate. Bacterium at a concentration of 10^6 CFU/ml were added to each well in a CAA medium. […] The fractional inhibitory concentration (FIC) for the LNT113 or antibiotic was calculated by dividing the MIC of two drugs by combining it with the MIC of each drug alone. […] The FICI was considered as a synergistic effect ≤0.5, an additive >0.5 ˜≤1, an independent effect (indifference)>1.0 ˜≤2, and an antagonistic effect (antagonism) >2.

A. baumannii = assay: MIC, broth microdilution; assay type: cell-based, Acinetobacter baumannii
Procedure: as §1

P. aeruginosa = assay: MIC, broth microdilution; assay type: cell-based, Pseudomonas aeruginosa
Procedure: as §1

E. coli [3] = assay: Antibacterial activity analysis (colony count after 2 hours in buffer); assay type: cell-based, Escherichia coli
Procedure: The antibacterial activity of the purified protein was tested for E. coli and various K. pneumoniae strains. The bacterium were grown to an exponential phase (OD600=0.5) and harvested by centrifugation at 12,000×g for 3 minutes. Then, the pellets were washed with reaction buffer solution (20 mM Tris-HCl, pH 7.5) and diluted to about 10^6 cells/ml in the buffer solution. Then, 100 μl bacterial suspension was mixed with the purified endolysin of 100 μl in the reaction buffer solution and incubated at 37° C. for 2 hours. Finally, the mixture was diluted with PBS and loaded on an LB plate. After culturing at 37° C. overnight, the bacterial colonies were counted. All the analysis was performed in triplicate.
The same reaction was performed for the selected subject bacterium in 20 mM HEPES-NaOH, 150 mM NaCl [pH 7.4], and the unique antibacterial activity of Tris and dependence of endolysin for turgor pressure were excluded (FIG. 10a and FIG. 10b). […] The bacterial cells grown geometrically were cultured with 2 μM endolysin in low tonicity buffers (20 mM Tris-HCl, pH 7.5 or 20 mM HEPES, pH 7.5) or high tonicity buffers (buffer solution comprising 150 mM NaCl) at 37° C. for 2 hours. The cells treated with storage buffer solution (20 mM Tris-HCl, pH 7.5, 150 mM NaCl buffer solution (pH 7.5)) were used as a negative control group. The dotted line represents the detection limit (1 Log CFU/ml).
For this, endolysin EC340 at a concentration of 2 μM and each test bacterium were added to reaction buffer (20 mM Tris-Cl, pH 7.5) so that the final concentration was to be 200 μl, and were left at 37° C. for 2 hours. After 2 hours, the number of colonies of Acinetobacter baumannii, Pseudomonas aeruginosa and Escherichia coli was confirmed, and the result was shown in FIG. 3.

B1: LNT113: fusion polypeptide: Cecropin A, (GGGGS)3 linker, mutant endolysin mtEC340; recombinant form with C-terminal His tag (protein)
chain: MKWKLFKKIEKVGQNIRDGIIKAGPAVAVVGQATQIAKGGGGSGGGGSGGGGSVSRNISNNGIKFTAAFEGFRGTAYRATPNEKYLTIGYGSYGPHVEPGKTITPGQGLLLLNRDMAKAVAAVDAVAHHSLTQSQFDAVCDLVYNAGAGVIAAATGTGKALRSGDVATLRAKLALFINQNGKPLLGLRRRTAGRLALFDGKPWQEAEAIGRAVKG
modifications: synthetic_Met+Cecropin A+GGGGS3 linker+mtEC340
notes: fusion polypeptide: Cecropin A, (GGGGS)3 linker, mutant endolysin mtEC340; recombinant form with C-terminal His tag
MIC (K. acrogenes; K. acrogenes CCARM 16006): 16 µg/mL
MIC (K. acrogenes; K. acrogenes CCARM 16008): 8 µg/mL
MIC (K. acrogenes; K. acrogenes CCARM 16010): 8 µg/mL
MIC (Salmonella enteritidis): > 64 µg/mL
MIC (Salmonella typhimurium): > 64 µg/mL
MIC range [1]: 4 to 32 µg/mL
MIC (K. pneumoniae; K. pneumoniae ATCC 700603): 16 µg/mL
MIC (K. pneumoniae; K. pneumoniae CCARK 10143): 4 µg/mL
MIC (K. pneumoniae; K. pneumoniae F144): 16 µg/mL
MIC (K. pneumoniae; K. pneumoniae Fil8): 16 µg/mL
MIC (K. pneumoniae; K. pneumoniae KCTO 2208): 8 µg/mL
MIC (K. pneumoniae; K. pneumoniae P1O4): 16 µg/mL
MIC (E. cloacae; E. cloacae ATCC 13047): 16 µg/mL
MIC (E. cloacae; E. cloacae CCARM 0252): 4 µg/mL
MIC (E. cloacae; E. cloacae CCARM 16003): 8 µg/mL
MIC of endolysin combined with colistin: LNT113 (E. coli [2]; E. coli ATOCB739, Colistin 0): 8 µg/mL
MIC of endolysin combined with colistin: LNT113 (E. coli [2]; E. coli ATOCB739, Colistin 0.0625): 4 µg/mL
MIC of endolysin combined with colistin: LNT113 (E. coli [2]; E. coli ATOCB739, Colistin 0.5): 2 µg/mL
MIC of endolysin combined with colistin: LNT113 (E. coli [2]; E. coli ATOCB739, Colistin 1): 1 µg/mL
MIC of endolysin combined with colistin: LNT113 (E. coli [2]; E. coli FORC81, Colistin 0): 8 µg/mL
MIC of endolysin combined with colistin: LNT113 (E. coli [2]; E. coli FORC81, Colistin 1): 4 µg/mL
MIC of endolysin combined with colistin: LNT113 (E. coli [2]; E. coli FORC81, Colistin 4): 2 µg/mL
MIC of endolysin combined with colistin: LNT113 (E. coli [2]; E. coli FORC81, Colistin 8): <0.25 µg/mL
MIC of endolysin combined with colistin: LNT113 (E. coli [2]; E. coli UPEC3150, Colistin 0): 8 µg/mL
MIC of endolysin combined with colistin: LNT113 (E. coli [2]; E. coli UPEC3150, Colistin 0.0625): 4 µg/mL
MIC of endolysin combined with colistin: LNT113 (E. coli [2]; E. coli UPEC3150, Colistin 0.5): 2 µg/mL
MIC of endolysin combined with colistin: LNT113 (E. coli [2]; E. coli UPEC3150, Colistin 2): 1 µg/mL
MIC (A. baumannii; A. baumannii ATCC (first ATCC line, number not given)): 8 µg/mL
MIC (A. baumannii; A. baumannii ATCC (second ATCC line, number not given)): 16 µg/mL
MIC (A. baumannii; A. baumannii CCARM): 8 µg/mL
MIC (A. baumannii; A. baumannii F4): 4 µg/mL
MIC (A. baumannii; A. baumannii F65): 8 µg/mL
MIC (A. baumannii; A. baumannii F66): 8 µg/mL
MIC (A. baumannii; A. baumannii F67): 8 µg/mL
MIC (P. aeruginosa; P. aeruginosa ATCC 15522): 8 µg/mL
MIC (P. aeruginosa; P. aeruginosa F102): 16 µg/mL
MIC (P. aeruginosa; P. aeruginosa F125): 4 µg/mL
MIC (P. aeruginosa; P. aeruginosa F141): 16 µg/mL
MIC (P. aeruginosa; P. aeruginosa F171): 32 µg/mL
MIC (P. aeruginosa; P. aeruginosa F388): 32 µg/mL
MIC (P. aeruginosa; P. aeruginosa PA01): 4 µg/mL
antibacterial activity (number of bacterium) (E. coli [3]; E. coli ATCC8739, ATCC25922, CCARM1A746, CCARM1B684, 2 μM, 2 hours, Tris-HCl pH 7.5): more excellent antibacterial activity
effect of adding NaCl on antibacterial activity (E. coli [3]; E. coli ATCC 8739, 2 μM, Tris or Hepes buffer with 150 mM NaCl): negative effect of salt presence was significantly reduced
dose and time dependence of antibacterial activity (E. coli [3]; E. coli ATCC 8739, 0.1-2.7 μM, 0.5 μM over time): antibacterial activity according to dose and time
antibacterial activity compared to Cecropin A and/or mtEC340 (E. coli [3]; E. coli ATCC8739, final concentration of 0.5 mM): enhanced antibacterial activity
increase in activity compared to mtEC340 (E. coli [3]; E. coli strains, 2 μM, 2 hours): ≤ 4 log
viable bacterial cells after culturing for 2 hours (E. coli [3]; all tested E. coli strains, 2 μM): No viable bacterial cells were detected
amount of bacterial cells after treatment (E. coli [3]; colistin-resistant E. coli FORC81, 2 μM, 2 hours): below the detection limit
